Data set [1] relates to HeLa Kyoto. The data set can be described thus: solubility in G1/S (NP-40 vs SDS abundance) (log2 ratio); higher = more soluble. To be noted: cell cycle stage: G1/S.
Data set [2] has as its system HeLa Kyoto. The data set can be described thus: melting temperature (median over replicates), in situ; higher = more thermally stable.
Data set [3] concerns HeLa Kyoto. The data set can be described thus: solubility change mitosis vs G1/S (difference of NP-40 vs SDS log2 ratios) (log2 ratio difference); higher = more soluble in mitosis.
Data set [4] deals with HeLa Kyoto. The data set can be described thus: thermal stability score vs G1/S (z-score of summed log2 fold changes over temperatures); higher = more thermally stable than in G1/S.
The mark [5] stands for this setting: cell cycle stage: early G1 (4.5 h after nocodazole release).
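Wherever melting temperature (median over replicates), in situ is given: HeLa Kyoto cells synchronized by double thymidine or nocodazole block, proteins quantified by TMT10plex mass spectrometry, three independent biological replicates.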
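Wherever solubility change mitosis vs G1/S (difference of NP-40 vs SDS log2 ratios) is given: synchronized HeLa Kyoto cells (double thymidine block for G1/S, nocodazole release for mitosis), protein amounts in NP-40 versus SDS lysates quantified by mass spectrometry, three biological replicates.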
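Wherever solubility in G1/S (NP-40 vs SDS abundance) is given: HeLa Kyoto cells arrested at G1/S by double thymidine block, proteins quantified by TMT10plex mass spectrometry in mild NP-40 versus SDS extracts, three biological replicates.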
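Wherever thermal stability score vs G1/S (z-score of summed log2 fold changes over temperatures) is given: synchronized HeLa Kyoto cells, proteins quantified by TMT10plex mass spectrometry, three biological replicates, mitosis taken 0.5 h after nocodazole release, G1/S directly after double thymidine block.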

With SPTBN2, in the data set on HeLa Kyoto [1], the “solubility in G1/S (log2)” value is -1.02. Also, the melting temperature in the data set with HeLa Kyoto [2] (cell cycle stage: G1/S) came out at 51.8 °C; in the data set on HeLa Kyoto [2] (cell cycle stage: mitosis), 50.8 °C. Moreover, in the data set with HeLa Kyoto [3], the “solubility change mitosis (log2)” value came out at 0.477. Further, the thermal stability score in the data set with HeLa Kyoto [4] (setting [5]) was 0.264; in the data set with HeLa Kyoto [4] (cell cycle stage: mitosis), -0.194.
For “MDLAAAAEPGAGSQHLEVRDEVAEKCQKLFLDFLEEFQSSDGEIKYLQLAEELIRPERNTLVVSFVDLEQFNQQLSTTIQEEFYRVYPYLCRALKTFVKDRKEIPLAKDFYVAFQDLPTRHKIRELTSSRIGLLTRISGQVVRTHPVHPELVSGTFLCLDCQTVIRDVEQQFKYTQPNICRNPVCANRRRFLLDTNKSRFVDFQKVRIQETQAELPRGSIPRSLEVILRAEAVESAQAGDKCDFTGTLIVVPDVSKLSTPGARAETNSRVSGVDGYETEGIRGLRALGVRDLSYRLVFLACCVAPTNPRFGGKELRDEEQTAESIKNQMTVKEWEKVFEMSQDKNLYHNLCTSLFPTIHGNDEVKRGVLLMLFGGVPKTTGEGTSLRGDINVCIVGDPSTAKSQFLKHVEEFSPRAVYTSGKASSAAGLTAAVVRDEESHEFVIEAGALMLADNGVCCIDEFDKMDVRDQVAIHEAMEQQTISITKAGVKATLNARTSILAAANPISGHYDRSKSLKQNINLSAPIMSRFDLFFILVDECNEVTDYAIARRIVDLHSRIEESIDRVYSLDDIRRYLLFARQFKPKISKESEDFIVEQYKHLRQRDGSGVTKSSWRITVRQLESMIRLSEAMARMHCCDEVQPKHVKEAFRLLNKSIIRVETPDVNLDQEEEIQMEVDEGAGGINGHADSPAPVNGINGYNEDINQESAPKASLRLGFSEYCRISNLIVLHLRKVEEEEDESALKRSELVNWYLKEIESEIDSEEELINKKRIIEKVIHRLTHYDHVLIELTQAGLKGSTEGSESYEEDPYLVVNPNYLLED [MCM6]”, the “solubility in G1/S (log2)” value with HeLa Kyoto [1] is -0.0881. Moreover, the results for the melting temperature with HeLa Kyoto [2] (cell cycle stage: G1/S) and in the data set with HeLa Kyoto [2] (cell cycle stage: mitosis) were 50.6 °C and 50.7 °C, respectively. Further, the “solubility change mitosis (log2)” value in the data set with HeLa Kyoto [3] is -0.0695. In addition, the figures for the thermal stability score in the data set with HeLa Kyoto [4] (setting [5]) and in the data set with HeLa Kyoto [4] (cell cycle stage: mitosis) were 3.18 and 4.76, respectively.
Regarding “MEKTELIQKAKLAEQAERYDDMATCMKAVTEQGAELSNEERNLLSVAYKNVVGGRRSAWRVISSIEQKTDTSDKKLQLIKDYREKVESELRSICTTVLELLDKYLIANATNPESKVFYLKMKGDYFRYLAEVACGDDRKQTIDNSQGAYQEAFDISKKEMQPTHPIRLGLALNFSVFYYEILNNPELACTLAKTAFDEAIAELDTLNEDSYKDSTLIMQLLRDNLTLWTSDSAGEECDAAEGAEN [YWHAQ]”, the “solubility in G1/S (log2)” value with HeLa Kyoto [1] is 0.435. Besides, the melting temperature amounted to 51.4 °C in the data set with HeLa Kyoto [2] (cell cycle stage: G1/S) and 52 °C in the data set on HeLa Kyoto [2] (cell cycle stage: mitosis). In addition, the “solubility change mitosis (log2)” value in the data set with HeLa Kyoto [3] stood at 0.372. Moreover, the thermal stability score in the data set on HeLa Kyoto [4] (setting [5]) stood at 0.526; in the data set on HeLa Kyoto [4] (cell cycle stage: mitosis), 2.69.
Take “MTAELQQDDAAGAADGHGSSCQMLLNQLREITGIQDPSFLHEALKASNGDITQAVSLLTDERVKEPSQDTVATEPSEVEGSAANKEVLAKVIDLTHDNKDDLQAAIALSLLESPKIQADGRDLNRMHEATSAETKRSKRKRCEVWGENPNPNDWRRVDGWPVGLKNVGNTCWFSAVIQSLFQLPEFRRLVLSYSLPQNVLENCRSHTEKRNIMFMQELQYLFALMMGSNRKFVDPSAALDLLKGAFRSSEEQQQDVSEFTHKLLDWLEDAFQLAVNVNSPRNKSENPMVQLFYGTFLTEGVREGKPFCNNETFGQYPLQVNGYRNLDECLEGAMVEGDVELLPSDHSVKYGQERWFTKLPPVLTFELSRFEFNQSLGQPEKIHNKLEFPQIIYMDRYMYRSKELIRNKRECIRKLKEEIKILQQKLERYVKYGSGPARFPLPDMLKYVIEFASTKPASESCPPESDTHMTLPLSSVHCSVSDQTSKESTSTESSSQDVESTFSSPEDSLPKSKPLTSSRSSMEMPSQPAPRTVTDEEINFVKTCLQRWRSEIEQDIQDLKTCIASTTQTIEQMYCDPLLRQVPYRLHAVLVHEGQANAGHYWAYIYNQPRQSWLKYNDISVTESSWEEVERDSYGGLRNVSAYCLMYINDKLPYFNAEAAPTESDQMSEVEALSVELKHYIQEDNWRFEQEVEEWEEEQSCKIPQMESSTNSSSQDYSTSQEPSVASSHGVRCLSSEHAVIVKEQTAQAIANTARAYEKSGVEAALSEVMLSPAMQGVILAIAKARQTFDRDGSEAGLIKAFHEEYSRLYQLAKETPTSHSDPRLQHVLVYFFQNEAPKRVVERTLLEQFADKNLSYDERSISIMKVAQAKLKEIGPDDMNMEEYKKWHEDYSLFRKVSVYLLTGLELYQKGKYQEALSYLVYAYQSNAALLMKGPRRGVKESVIALYRRKCLLELNAKAASLFETNDDHSVTEGINVMNELIIPCIHLIINNDISKDDLDAIEVMRNHWCSYLGQDIAENLQLCLGEFLPRLLDPSAEIIVLKEPPTIRPNSPYDLCSRFAAVMESIQGVSTVTVK [USP28]”: the “solubility in G1/S (log2)” value in the data set with HeLa Kyoto [1] came to 0.0518. The melting temperature is 48 °C with HeLa Kyoto [2] (cell cycle stage: G1/S) and 49.4 °C in the data set with HeLa Kyoto [2] (cell cycle stage: mitosis). For the same substance, the “solubility change mitosis (log2)” value with HeLa Kyoto [3] is -0.0214. In addition, the thermal stability score in the data set on HeLa Kyoto [4] (setting [5]) worked out at 0.432; in the data set with HeLa Kyoto [4] (cell cycle stage: mitosis), 0.537.
On to “MWIQVRTMDGRQTHTVDSLSRLTKVEELRRKIQELFHVEPGLQRLFYRGKQMEDGHTLFDYEVRLNDTIQLLVRQSLVLPHSTKERDSELSDTDSGCCLGQSESDKSSTHGEAAAETDSRPADEDMWDETELGLYKVNEYVDARDTNMGAWFEAQVVRVTRKAPSRDEPCSSTSRPALEEDVIYHVKYDDYPENGVVQMNSRDVRARARTIIKWQDLEVGQVVMLNYNPDNPKERGFWYDAEISRKRETRTARELYANVVLGDDSLNDCRIIFVDEVFKIERPGEGSPMVDNPMRRKSGPSCKHCKDDVNRLCRVCACHLCGGRQDPDKQLMCDECDMAFHIYCLDPPLSSVPSEDEWYCPECRNDASEVVLAGERLRESKKKAKMASATSSSQRDWGKGMACVGRTKECTIVPSNHYGPIPGIPVGTMWRFRVQVSESGVHRPHVAGIHGRSNDGAYSLVLAGGYEDDVDHGNFFTYTGSGGRDLSGNKRTAEQSCDQKLTNTNRALALNCFAPINDQEGAEAKDWRSGKPVRVVRNVKGGKNSKYAPAEGNRYDGIYKVVKYWPEKGKSGFLVWRYLLRRDDDEPGPWTKEGKDRIKKLGLTMQYPEGYLEALANREREKENSKREEEEQQEGGFASPRTGKGKWKRKSAGGGPSRAGSPRRTSKKTKVEPYSLTAQQSSLIREDKSNAKLWNEVLASLKDRPASGSPFQLFLSKVEETFQCICCQELVFRPITTVCQHNVCKDCLDRSFRAQVFSCPACRYDLGRSYAMQVNQPLQTVLNQLFPGYGNGR [UHRF1]”, for which the “solubility in G1/S (log2)” value in the data set on HeLa Kyoto [1] was -0.563. Further, the melting temperature amounted to 45.8 °C with HeLa Kyoto [2] (cell cycle stage: G1/S) and 48.3 °C with HeLa Kyoto [2] (cell cycle stage: mitosis). For the same substance, the “solubility change mitosis (log2)” value with HeLa Kyoto [3] came out at 0.3. The thermal stability score in the data set with HeLa Kyoto [4] (setting [5]) was determined as 4.54; with HeLa Kyoto [4] (cell cycle stage: mitosis), 8.25.

Source of the values: the supplement of paper PMC5998384.
